# Experiments:
# [1] = target: T1, human ROR1 expressed on the cell surface (human, UniProt Q01973 30-937); assay: flow cytometry on BT20 cells (breast cancer), C2E3 IgG at 10 µg/mL, MFI of anti-ROR1 / MFI of 2nd Ab
# T1 construct: whole, on cells; On JeKo-1 and Mino cells and other cancer cell lines (endogenous) and on transfected CHO and MC38 cells; also called cell surface-expressed ROR1; CHO-human ROR1
# Experimental: (§1) For the cell lines, the binding to ROR1 was analyzed with FACS (FACSCalibur, BD Biosciences) by using the anti-ROR1 antibody of the present invention.
# (§2) Specifically, after disassociating each cell line and washing in PBS, the number of cells was counted and set as 2 ×10^5 cells/200 µl PBS, and then the clone C2E3 among ROR1 monoclonal antibodies prepared in Example 3 was treated in 10 µg/mL, and it was reacted at 4° C. for 1 hour. After reaction, cells were washed in PBS, and then the FITC-labeled constant region (Fc)-specific antibody (Goat anti-human IgG FITC conjugate, Fc specific, Sigma, F9512, concentration: 2.0 mg/ml) was suspended in 2 µl/1 ×10^5 cells/200 µl PBS, and it was reacted at 4° C. for 1 hour. After reaction, cells were washed in PBS, it was analyzed using a FACSCalibur device. The negative control group was treated only with the FITC-labeled constant region (Fc)-specific antibody. To compare the expression degrees of ROR1 among the cancer cell lines, the value of the result for the peak shift in the experimental group treated with the ROR1 monoclonal antibody (C2E3) of the present invention was divided by the result for the peak shift in the control group (Mean Fluorescence Intensity Ratio MFI Ratio: MFI of anti-ROR1/MFI of 2nd Ab).
# [2] = target: T2, mouse ROR1 expressed on the cell surface (CHO-mouse ROR1) (mouse, UniProt Q9Z139 30-937); assay: flow cytometry on CHO cells transiently overexpressing mouse ROR1, FITC anti-human Fc detection, MFI ratio to 2nd Ab
# T2 construct: whole, on cells; Temporarily transfected CHO cells
# T2 sequence (Q9Z139 30-937): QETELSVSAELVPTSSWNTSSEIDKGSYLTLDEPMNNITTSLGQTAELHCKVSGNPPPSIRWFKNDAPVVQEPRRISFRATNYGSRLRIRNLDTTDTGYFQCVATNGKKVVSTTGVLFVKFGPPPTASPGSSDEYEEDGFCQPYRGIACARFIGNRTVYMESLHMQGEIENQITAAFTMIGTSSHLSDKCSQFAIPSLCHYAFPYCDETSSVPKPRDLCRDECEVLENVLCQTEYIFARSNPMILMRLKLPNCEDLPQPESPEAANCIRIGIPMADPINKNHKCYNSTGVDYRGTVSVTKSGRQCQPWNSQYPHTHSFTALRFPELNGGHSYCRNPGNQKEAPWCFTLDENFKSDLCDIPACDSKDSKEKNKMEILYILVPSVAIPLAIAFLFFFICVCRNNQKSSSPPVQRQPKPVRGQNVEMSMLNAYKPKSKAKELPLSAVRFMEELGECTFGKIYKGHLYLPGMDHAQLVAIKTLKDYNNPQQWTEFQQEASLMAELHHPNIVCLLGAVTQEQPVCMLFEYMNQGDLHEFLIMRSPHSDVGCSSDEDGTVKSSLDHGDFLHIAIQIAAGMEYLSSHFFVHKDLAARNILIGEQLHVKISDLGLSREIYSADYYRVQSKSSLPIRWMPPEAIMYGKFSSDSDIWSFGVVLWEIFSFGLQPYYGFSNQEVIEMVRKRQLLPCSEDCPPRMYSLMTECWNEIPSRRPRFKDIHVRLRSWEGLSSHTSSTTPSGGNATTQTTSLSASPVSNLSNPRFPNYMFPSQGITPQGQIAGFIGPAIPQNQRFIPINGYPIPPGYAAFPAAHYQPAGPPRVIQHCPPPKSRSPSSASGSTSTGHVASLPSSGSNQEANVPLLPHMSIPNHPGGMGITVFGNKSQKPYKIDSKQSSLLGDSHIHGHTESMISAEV
# Experimental: For this experiment, the degree of binding of the anti-ROR1 antibody and ROR1 was measured by using FACSCalibur (BD Biosciences) device with the cell lines as follows, the cell lines artificially overexpressing the ROR1 protein by transfecting an ROR1 gene temporarily (CHO-human ROR1, CHO-human ROR2, CHO-mouse ROR1) or stably (MC38-human ROR1) (FIG. 5 and FIG. 7, respectively) or the cell lines expressing ROR1 (JeKo-1, Mino) (FIG. 6) or a cell line not expressing ROR1 (MCF7) (FIG. 6). […] JeKo-1, Mino, CHO-human ROR1, CHO-mouse ROR1 and MC38-human ROR1 are all cell lines expressing human ROR1 or mouse ROR1.
# Specifically, after disassociating each cell line and washing in PBS, the number of cells was counted and set as 2×10^5 cells/200 µl PBS, and then each ROR1 monoclonal antibody in Example 3 was prepared in 10 µg/mL or as 5 fold-diluted from 10 µg/mL, and was reacted at 4° C. for 1 hour. After reaction, cells were washed in PBS and then the FITC-labeled constant region (Fc)-specific antibody (Goat anti-human IgG FITC conjugate, Fc specific, Sigma, F9512, concentration: 2.0 mg/ml) was suspended in 2 µl/1×10^5 cells/200 µl PBS, and it was reacted at 4° C. for 1 hours. The confirmation of expression degree of human ROR1, human ROR2 and mouse ROR1 that were temporarily overexpressed was analyzed by using a commercially available antibody for FACS analysis (anti-ROR1: R&D Systems, FAB2000G, anti-ROR2: R&D, FAB20641P). After reaction, cells were washed in PBS and decoded by using a FACSCalibur device. The negative control group (2nd Ab) was treated only with the FITC-labeled constant region (Fc)-specific antibody. The result for the peak shift in the experimental group treated with each ROR1 monoclonal antibody was compared to the result for the shift in the control group (Mean Fluorescence Intensity Ratio, MFI Ratio: MFI of anti-ROR1/MFI of 2nd Ab).
# [3] = target: T1, human ROR1 expressed on the cell surface; assay: flow cytometry on HT29 cells (colon cancer), C2E3 IgG at 10 µg/mL, MFI of anti-ROR1 / MFI of 2nd Ab
# Experimental: as §1, §2
# [4] = target: T1, human ROR1 expressed on the cell surface; assay: flow cytometry on H1437 cells (lung cancer), C2E3 IgG at 10 µg/mL, MFI of anti-ROR1 / MFI of 2nd Ab
# Experimental: as §1, §2
# [5] = target: T3, recombinant mouse ROR1 protein (Acrobiosystems, RO1-M5221) (mouse, UniProt Q9Z139 30-406); assay: ELISA, recombinant mouse ROR1 protein coated at 1 µg/ml, IgG titrated, HRP anti-Fab detection
# T3 construct: extracellular domain; Bought; also called mouse ROR1 antigen
# T3 sequence (Q9Z139 30-406): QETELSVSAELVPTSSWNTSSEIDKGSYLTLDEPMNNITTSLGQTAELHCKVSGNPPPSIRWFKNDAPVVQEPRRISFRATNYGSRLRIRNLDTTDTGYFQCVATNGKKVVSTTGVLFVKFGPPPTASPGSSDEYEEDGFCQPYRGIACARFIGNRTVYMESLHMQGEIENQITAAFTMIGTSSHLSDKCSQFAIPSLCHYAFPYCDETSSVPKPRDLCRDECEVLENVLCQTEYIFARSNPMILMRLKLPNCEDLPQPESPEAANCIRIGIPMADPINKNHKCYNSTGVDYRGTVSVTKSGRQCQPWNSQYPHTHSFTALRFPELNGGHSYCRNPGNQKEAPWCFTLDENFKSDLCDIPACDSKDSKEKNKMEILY
# Experimental: The anti-ROR1 antibody-antigen binding affinity was estimated by using an ELISA-based solution binding test. Specifically, a 96-well microtiter plate (Nunc-Immuno Plates, NUNC) was coated with the ROR1 protein at a concentration of 1 µg/ml in a PBS solution as described below at 4° C. for 16 hours, and non-specific binding sites were blocked with 3% BSA (bovine serum albumin) for 2 hours. For this, as the ROR1 protein, in case of human ROR1, ROR1-Fc of Example 1 or recombinant ROR1-His (Sino Biological, 13968-H08H) was used. The ROR1-His used for ELISA was a protein of sino biological company (13968-H08H) as described in the above sentence, and ROR1-His of Example 1 or recombinant mouse ROR1 protein was used (Acrobiosystems, RO1-M5221-100 µg).
# Then, after adding the anti-ROR1 antibody prepared in Example 3 at the concentration described in FIG. 2 into the microtiter plate on a 96-well microtiter plate, the binding capacity was analyzed with ELISA as follows. Specifically, after constant temperature treatment for 2 hours, the plate was washed with PBS comprising 0.05% tween 20 5 times, and then a HRP-conjugated Fab multiclonal antibody reagent (Pierce, 31414) was diluted at 1:10,000 ratio, and was put into the washed microtiter plate, and it was incubated at 37° C. for 1 hour, and the ROR1 antibody bound to the plate was detected. After reaction, it was color-developed by using TMB (Tetramethylbenzidine, Sigma, T0440). The enzymatic reaction was stopped by 0.5 mol/L of sulfuric acid, and the absorbances at 450 nm and 650 nm were measured by using a micro plate reader device (molecular device) (450 nm-650 nm).
# [6] = target: T1, human ROR1 expressed on the cell surface; assay: flow cytometry on NCI-N87 cells (gastric cancer), C2E3 IgG at 10 µg/mL, MFI of anti-ROR1 / MFI of 2nd Ab
# Experimental: as §1, §2
# T1 sequence (Q01973 30-937): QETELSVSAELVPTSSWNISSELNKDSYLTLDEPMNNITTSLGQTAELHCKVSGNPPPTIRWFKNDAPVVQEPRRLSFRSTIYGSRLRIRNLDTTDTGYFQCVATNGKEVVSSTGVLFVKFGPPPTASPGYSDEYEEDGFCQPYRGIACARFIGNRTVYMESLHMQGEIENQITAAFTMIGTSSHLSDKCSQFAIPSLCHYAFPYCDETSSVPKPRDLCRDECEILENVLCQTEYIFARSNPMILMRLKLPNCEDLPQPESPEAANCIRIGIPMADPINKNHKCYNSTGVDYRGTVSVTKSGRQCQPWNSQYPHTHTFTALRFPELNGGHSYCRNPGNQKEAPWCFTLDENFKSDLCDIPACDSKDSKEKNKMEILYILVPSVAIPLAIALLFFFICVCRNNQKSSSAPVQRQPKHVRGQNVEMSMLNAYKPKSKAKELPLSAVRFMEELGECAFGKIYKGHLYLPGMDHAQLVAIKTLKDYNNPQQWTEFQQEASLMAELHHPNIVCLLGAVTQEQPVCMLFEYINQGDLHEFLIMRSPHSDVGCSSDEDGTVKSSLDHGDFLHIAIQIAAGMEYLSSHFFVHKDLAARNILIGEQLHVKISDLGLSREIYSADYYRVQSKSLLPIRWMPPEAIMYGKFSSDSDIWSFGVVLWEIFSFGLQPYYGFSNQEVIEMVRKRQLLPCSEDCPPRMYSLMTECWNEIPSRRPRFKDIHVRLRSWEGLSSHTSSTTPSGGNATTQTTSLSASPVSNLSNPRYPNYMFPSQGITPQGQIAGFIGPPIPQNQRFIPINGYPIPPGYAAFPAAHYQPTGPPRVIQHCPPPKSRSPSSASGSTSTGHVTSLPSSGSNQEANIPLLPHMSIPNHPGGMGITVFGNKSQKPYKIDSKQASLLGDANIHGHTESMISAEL
binder,measurement,setting,value
"C2E3 anti-ROR1 IgG antibody (antibody, V domains shown) VH: EVQLLESGGGLVQPGGSLRLSCAASGFTFSNYAMSWVRQAPGKGLEWVSSISHNSGSTYYADSVKGRFTISRDNSKNTLYLQMNSLRAEDTAVYYCAKFISARKSLGRSYSNGMDVWGQGTLVTVSS VL: QSVLTQPPSASGTPGQRVTISCTGSSSNIGSNDVTWYQQLPGTAPKLLIYADSKRPSGVPDRFSGSKSGTSASLAISGLRSEDEADYYCGTWDYSLSGYVFGGGTKLTVLG",Mean Fold Ratio,[1],3
same,binding result,[2],binds
same,Mean Fold Ratio,[3],3.9
same,Mean Fold Ratio,[4],4.1
same,binding result,[5],binds
same,Mean Fold Ratio,[6],11.8
